# Laboratory results from the RNAGym collection of RNA variant scans (doi:10.7554/elife.80360).
# B1: HDV Ribozyme (parent)
# chain: GGCCGGCAUGGUCCCAGCCUCCUCGCUGGCGCCGGCUGGGCAACAUUCCGAGGGGACCGUCCCCUCGGUAAUGGCGAAUGGGACCCA
# Variants of: B1
# Test: self-cleavage, relative activity (ratio to wild type); higher = more cleavage; co-transcriptional
row,Variant,self-cleavage
1,GGCCGGCAUGGUCCCAGCCUCCUCGCUAGCGCCGGCUGGGCAACAUUCCGAGGGGACCGGCCCCUCGGUAAUGGCGAAUGGGACCCA,0.0386
2,GGCCGGCAUGGUCCCAGCCUCCUCGCUAGCGCCGGCUGGGCAACAUUCCGAGGGGACCGCCCCCUCGGUAAUGGCGAAUGGGACCCA,0.0811
3,GGCCGGCAUGGUCCCAGCCUCCUCGCUAGCGCCGGCUGGGCAACAUUCCGAGGGGACCGACCCCUCGGUAAUGGCGAAUGGGACCCA,0.178
4,GGCCGGCAUGGUCCCAGCCUCCUCGCUAGCGCCGGCUGGGCAACAUUCCGAGGGGACCGUCCCCUUGGUAAUGGCGAAUGGGACCCA,0.138
5,GGCCGGCAUGGUCCCAGCCUCCUCGCUAGCGCCGGCUGGGCAACAUUCCGAGGGGACCGUCCCCUCGGUAAUGGCGAAGGGGACCCA,0.0489
6,GGCCGGCAUGGUCCCAGCCUCCUCGCUCGCGCCGGCUGGGCAACCUUCCGAGGGGACCGUCCCCUCGGUAAUGGCGAAUGGGACCCA,0.0594
7,GGCCGGCAUGGUCCCAGCCUCCUCGCUCGCGCCGGCUGGGCAACGUUCCGAGGGGACCGUCCCCUCGGUAAUGGCGAAUGGGACCCA,0.0811
8,GGCCGGCAUGGUCCCAGCCUCCUCGCUAGCGCCGGCUGGGCAACAUUCCGAGGGGACCGUUCCCUCGGUAAUGGCGAAUGGGACCCA,0.0631
9,GGCCGGCAUGGUCCCAGCCUCCUCGCUAGCGCCGGCUGGGCAACAUUCCGAGGGGACCGUCCCCACGGUAAUGGCGAAUGGGACCCA,0.0755
10,GGCCGGCAUGGUCCCAGCCUCCUCGCUAGCGCCGGCUGGGCAACAUUCCGAGGGGACCGUCCCCGCGGUAAUGGCGAAUGGGACCCA,0.0386
11,GGCCGGCAUGGUCCCAGCCUCCUCGCUAGCUCCGGCUGGGCAACAUUCCGAGGGGACCGUCCCCUCGGUAAUGGCGAAUGGGACCCA,0.133
12,GGCCGGCAUGGUCCCAGCCUCCUCGCUAGCCCCGGCUGGGCAACAUUCCGAGGGGACCGUCCCCUCGGUAAUGGCGAAUGGGACCCA,0
13,GGCCGGCAUGGUCCCAGCCUCCUCGCUAGCGCCGGCUGGGCAACAUUCCGAGGGGACAGUCCCCUCGGUAAUGGCGAAUGGGACCCA,0.0639
14,GGCCGGCAUGGUCCCAGCCUCCUCGCUAGCGCCGGCUGGGCAACAUUCCGAGGGGACUGUCCCCUCGGUAAUGGCGAAUGGGACCCA,0.0228
15,GGCCGGCAUGGUCCCAGCCUCCUCGCUAGCGCCGGCUGGGCAACAUUCCGAGGGGACCGUCCCAUCGGUAAUGGCGAAUGGGACCCA,0.121
16,GGCCGGCAUGGUCCCAGCCUCCUCGCUAGCGCCGGCUGGGCAACAUUCCGAGGGGACCGUCCCGUCGGUAAUGGCGAAUGGGACCCA,0.108
17,GGCCGGCAUGGUCCCAGCCUCCUCGCUAGCGCCGGCUGGGCAACAUUCCGAGGGGACCGUCCCUUCGGUAAUGGCGAAUGGGACCCA,0.117
18,GGCCGGCAUGGUCCCAGCCUCCUCGCUAGCGCCGGCUGGGCAACAUUCCGAGGGGACCGUCCACUCGGUAAUGGCGAAUGGGACCCA,0.128
19,GGCCGGCAUGGUCCCAGCCUCCUCGCUAGCGCCGGCUGGGCAACAUUCCGAGGGGACCGUCCGCUCGGUAAUGGCGAAUGGGACCCA,0.148
20,GGCCGGCAUGGUCCCAGCCUCCUCGCUAGCGCCGGCCGGGCAACAUUCCGAGGGGACCGUCCCCUCGGUAAUGGCGAAUGGGACCCA,0.151
21,GGCCGGCAUGGUCCCAGCCUCCUCGCUAGCGCCGGCUGGGCAACACUCCGAGGGGACCGUCCCCUCGGUAAUGGCGAAUGGGACCCA,0.0594
22,GGCCGGCAUGGUCCCAGCCUCCUCGCUAGCGCCGGCUGGGCAACAAUCCGAGGGGACCGUCCCCUCGGUAAUGGCGAAUGGGACCCA,0.0326

row,Variant,self-cleavage
1,GGCCGGCAUGGUCCCAGCCUCCUCGCUAGCGCCGUCUGGGCAACAUUCCGAGGGGACCGUCCCCUCGGUAAUGGCGAAUGGGACCCA,0.0601
2,GGCCGGCAUGGUCCCAGCCUCCUCGCUAGCGCCGGCUGGGCAACAUUCAGAGGGGACCGUCCCCUCGGUAAUGGCGAAUGGGACCCA,0.111
3,GGCCGGCAUGGUCCCAGCCUCCUCGCUAGCGCCGGCUGGGCAACAUUCUGAGGGGACCGUCCCCUCGGUAAUGGCGAAUGGGACCCA,0.0683
4,GGCCGGCAUGGUCCCAGCCUCCUCGCUAGCGCCGGCUGGGCAACAUUCCGAGGGGACCUUCCCCUCGGUAAUGGCGAAUGGGACCCA,0.117
5,GGCCGGCAUGGUCCCAGCCUCCUCGCUAGCGCCGGCUGGGCAACAUUCCGAGGGGACCCUCCCCUCGGUAAUGGCGAAUGGGACCCA,0.086
6,GGCCGGCAUGGUCCCAGCCUCCUCGCUAGCGCCGGCUGGGCAACAUGCCGAGGGGACCGUCCCCUCGGUAAUGGCGAAUGGGACCCA,0.268
7,GGCCGGCAUGGUCCCAGCCUCCUCGCUAGCGCCGGCUGGGCAACAUACCGAGGGGACCGUCCCCUCGGUAAUGGCGAAUGGGACCCA,0
8,GGCCGGCAUGGUCCCAGCCUCCUCGCUAGCGCCGGCUGGGCAACAUUCCGAGGUGACCGUCCCCUCGGUAAUGGCGAAUGGGACCCA,0.0733
9,GGCCGGCAUGGUCCCAGCCUCCUCGCUAGCGCCGGCUGGGCAACAUUCCGAGGAGACCGUCCCCUCGGUAAUGGCGAAUGGGACCCA,0.0811
10,GGCCGGCAUGGUCCCAGCCUCCUCGCUAGCGCCGGCUGGGCAACAUUCCGAGGGGACCGUCCCCUCGGUAAUGGCGAAUGGGACCAA,0.0256
11,GGCCGGCAUGGUCCCAGCCUCCUCGCUAGCGCCGGCUGGGCAACAUUCCGAGGGGACCGUCCCCUCGGUAAUGGCGAAUGGGAGCCA,0.0378
12,GGCCGGCAUGGUCCCAGCCUCCUCGCUCGCGCCGGCUGGGCAUCAUUCCGAGGGGACCGUCCCCUCGGUAAUGGCGAAUGGGACCCA,0.111
13,GGCCGGCAUGGUCCCAGCCUCCUCGCUAGCGCCGGCUGGGCAACAUUCCGAGGGGACCGUCCCCUCGGUAAUGGCGAAUGGGACGCA,0.0332
14,GGCCGGCAUGGUCCCAGCCUCCUCGCUAGCGCCGGCUGGGCAACAUUCCGAGGGGACCGUCCCCUCGGUAAUGGCGAAUGGGACACA,0.0369
15,GGCCGGCAUGGUCCCAGCCUCCUCGCUAGCGCCGGCUGGGCAACAUUCCGAGGGGACCGUCCCCUCGGUAAUGGCGAAUUGGACCCA,0.0989
16,GGCCGGCAUGGUCCCAGCCUCCUCGCUAGCGCCGGCUGGGCAACAUUCCGAGGGGACCGUCCCCUCGGUAAUGGCAAAUGGGACCCA,0.0563
17,GGCCGGCAUGGUCCCAGCCUCCUCGCUAGCGCCGGCUGGGCAACAUUCCGAGGGGACCGUCCCCUCGGUAAUGGCUAAUGGGACCCA,0.0923
18,GGCCGGCAUGGUCCCAGCCUCCUCGCUAGCGCCGGCUGGGCAACAUUCCGAGGGCACCGUCCCCUCGGUAAUGGCGAAUGGGACCCA,0.0252
19,GGCCGGCAUGGUCCCAGCCUCCUCGCUAGCGCCGGCUGGGCAACAUUCCGAGGGAACCGUCCCCUCGGUAAUGGCGAAUGGGACCCA,0.153
20,GGCCGGCAUGGUCCCAGCCUCCUCGCUAGCGCCUGCUGGGCAACAUUCCGAGGGGACCGUCCCCUCGGUAAUGGCGAAUGGGACCCA,0.0277
21,GGCCGGCAUGGUCCCAGCCUCCUCGCUAGCGCCGGCUGGGCAACAUUCCGAGGGGACCGUCCCCUCGGUAAUGGCGAAUGUGACCCA,0.0287
22,GGCCGGCAUGGUCCCAGCCUCCUCGCUAGCGCCGGCUGGGCAACAUUCCGAGGGGACCGUCCCCUCGGUAAUGGCGAAUGCGACCCA,0.0674

row,Variant,self-cleavage
1,GGCCGGCAUGGUCCCAGCCUCCUCGCUAGCGCCGGCUGGGCAACAUUCCGAAGGGACCGUCCCCUCGGUAAUGGCGAAUGGGACCCA,0.0764
2,GGCCGGCAUGGUCCCAGCCUCCUCGCUAGCGCCGGCUGGGCAACAUUCCGAUGGGACCGUCCCCUCGGUAAUGGCGAAUGGGACCCA,0.0475
3,GGCCGGCAUGGUCCCAGCCUCCUCGCUAACGCCGGCUGGGCAACAUUCCGAGGGGACCGUCCCCUCGGUAAUGGCGAAUGGGACCCA,0.0978
4,GGCCGGCAUGGUCCCAGCCUCCUCGCUAUCGCCGGCUGGGCAACAUUCCGAGGGGACCGUCCCCUCGGUAAUGGCGAAUGGGACCCA,0.111
5,GGCCGGCAUGGUCCCAGCCUCCUCGCUACCGCCGGCUGGGCAACAUUCCGAGGGGACCGUCCCCUCGGUAAUGGCGAAUGGGACCCA,0.0519
6,GGCCGGCAUGGUCCCAGCCUCCUCGCUAGCGCCGGCUGGGCAACAUUCCCAGGGGACCGUCCCCUCGGUAAUGGCGAAUGGGACCCA,0.0978
7,GGCCGGCAUGGUCCCAGCCUCCUCGCUAGCGCCGGCUGGGCAACAUUCCGAGGGGAGCGUCCCCUCGGUAAUGGCGAAUGGGACCCA,0
8,GGCCGGCAUGGUCCCAGCCUCCUCGCUAGCGCCGGCUGGGCAACAUUCCGAGGGGAUCGUCCCCUCGGUAAUGGCGAAUGGGACCCA,0.163
9,GGCCGGCAUGGUCCCAGCCUCCUCGCUAGCGCCGGCUGGGCAACAUUCCGAGGGGAACGUCCCCUCGGUAAUGGCGAAUGGGACCCA,0.0978
10,GGCCGGCAUGGUCCCAGCCUCCUCGCUAGCGCCGGCUGGGCAACAUUCCGAGGGGACCGUCCCCUCGGGAAUGGCGAAUGGGACCCA,0
11,GGCCGGCAUGGUCCCAGCCUCCUCGCUCGCGCCGGCUGGGCGACAUUCCGAGGGGACCGUCCCCUCGGUAAUGGCGAAUGGGACCCA,0
12,GGCCGGCAUGGUCCCAGCCUCCUCGCUCGCGCCGGCUGGGCUACAUUCCGAGGGGACCGUCCCCUCGGUAAUGGCGAAUGGGACCCA,0.166
13,GGCCGGCAUGGUCCCAGCCUCCUCGCUAGCGCCGGCUGGGCAACAUUCCGAGGGGACCGUCCCCUCUGUAAUGGCGAAUGGGACCCA,0.0536
14,GGCCGGCAUGGUCCCAGCCUCCUCGCUAGCGCCGGCUGGACAACAUUCCGAGGGGACCGUCCCCUCGGUAAUGGCGAAUGGGACCCA,0.0615
15,GGCCGGCAUGGUCCCAGCCUCCUCGCUAGCGCCGGCUGGGCAACAUUCCGAGGGGACCGUCCCCUCGGUAAUGGCGAAUGGUACCCA,0.138
16,GGCCGGCAUGGUCCCAGCCUCCUCGCUAGCGCCGGCUUGGCAACAUUCCGAGGGGACCGUCCCCUCGGUAAUGGCGAAUGGGACCCA,0.0496
17,GGCCGGCAUGGUCCCAGCCUCCUCGCUAGCGCCGGCUGGGCAACAUUCCGAGGGGACCGUCCCCUCGGUAAUCGCGAAUGGGACCCA,0.0256
18,GGCCGGCAUGGUCCCAGCCUCCUCGCUAGCGCCGGCUGGGCAACAUUCCGAGGGGACCGUCCCCUCGGUAAUUGCGAAUGGGACCCA,0.0326
19,GGCCGGCAUGGUCCCAGCCUCCUCGCUAGCGCCGGCUGGGCAACAUUCCGAGGGGACCGUCGCCUCGGUAAUGGCGAAUGGGACCCA,0.111
20,GGCCGGCAUGGUCCCAGCCUCCUCGCUAGCGCCGGCUGGGCAACAUUCCGAGGGGACCGUCACCUCGGUAAUGGCGAAUGGGACCCA,0.0297
